Drawing on paper PMC11551749, this text covers binding result and Kd for 6 molecules.

The target in series [1] is T1, RPA heterotrimer (RPA1/RPA2/RPA3) (human, UniProt P27694;P15927;P35244 1-616;1-270;1-121). Briefly: EMSA. (In general: In EMSA bound probe runs differently from free probe, usually more slowly.)
In series [2] the target is T2, hnRNPA1 (human, UniProt P09651 1-372). Briefly: bulk FRET.
The target in series [3] is hnRNPA1;RPA heterotrimer (RPA1/RPA2/RPA3) (human;human, UniProt P09651;P27694;P15927;P35244 1-372;1-616;1-270;1-121, |). Briefly: bulk FRET.
Chain of hnRNPA1;RPA heterotrimer (RPA1/RPA2/RPA3) (P09651 whole entry, chain 1 of 4): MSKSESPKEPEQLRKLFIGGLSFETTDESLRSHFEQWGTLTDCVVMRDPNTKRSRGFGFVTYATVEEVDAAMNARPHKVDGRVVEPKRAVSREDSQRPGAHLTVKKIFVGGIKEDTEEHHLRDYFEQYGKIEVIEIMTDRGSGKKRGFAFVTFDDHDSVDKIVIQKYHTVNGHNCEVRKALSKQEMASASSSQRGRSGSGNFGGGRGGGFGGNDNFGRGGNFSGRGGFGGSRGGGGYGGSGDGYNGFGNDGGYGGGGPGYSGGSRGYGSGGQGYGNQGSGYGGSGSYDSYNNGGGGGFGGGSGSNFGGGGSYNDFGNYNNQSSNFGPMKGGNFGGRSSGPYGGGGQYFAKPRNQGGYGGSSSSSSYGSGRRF
Chain of hnRNPA1;RPA heterotrimer (RPA1/RPA2/RPA3) (P27694 whole entry, chain 2 of 4): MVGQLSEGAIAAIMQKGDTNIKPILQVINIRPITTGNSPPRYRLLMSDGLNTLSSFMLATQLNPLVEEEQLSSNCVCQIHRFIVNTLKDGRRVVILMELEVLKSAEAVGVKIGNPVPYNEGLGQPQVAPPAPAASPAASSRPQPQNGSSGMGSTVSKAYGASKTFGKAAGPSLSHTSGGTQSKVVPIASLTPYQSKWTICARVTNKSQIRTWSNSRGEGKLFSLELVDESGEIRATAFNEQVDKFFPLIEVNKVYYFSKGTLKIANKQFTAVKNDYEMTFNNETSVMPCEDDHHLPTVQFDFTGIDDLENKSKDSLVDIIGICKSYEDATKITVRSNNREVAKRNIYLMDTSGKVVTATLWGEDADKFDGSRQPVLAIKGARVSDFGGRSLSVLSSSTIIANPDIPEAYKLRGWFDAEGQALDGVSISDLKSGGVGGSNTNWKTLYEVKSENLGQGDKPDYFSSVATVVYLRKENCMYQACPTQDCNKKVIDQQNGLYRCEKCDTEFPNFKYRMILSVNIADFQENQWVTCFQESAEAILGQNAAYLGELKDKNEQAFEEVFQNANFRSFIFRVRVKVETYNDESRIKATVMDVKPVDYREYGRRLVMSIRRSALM
Chain of hnRNPA1;RPA heterotrimer (RPA1/RPA2/RPA3) (P15927 whole entry, chain 3 of 4): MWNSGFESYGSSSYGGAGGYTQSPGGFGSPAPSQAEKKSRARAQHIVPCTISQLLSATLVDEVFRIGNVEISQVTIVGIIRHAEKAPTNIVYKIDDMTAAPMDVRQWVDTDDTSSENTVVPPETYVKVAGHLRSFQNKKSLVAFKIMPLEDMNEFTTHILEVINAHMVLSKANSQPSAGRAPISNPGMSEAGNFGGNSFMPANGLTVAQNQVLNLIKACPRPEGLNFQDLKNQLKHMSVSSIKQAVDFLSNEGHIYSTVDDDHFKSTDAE
Chain of hnRNPA1;RPA heterotrimer (RPA1/RPA2/RPA3) (P35244 whole entry, chain 4 of 4): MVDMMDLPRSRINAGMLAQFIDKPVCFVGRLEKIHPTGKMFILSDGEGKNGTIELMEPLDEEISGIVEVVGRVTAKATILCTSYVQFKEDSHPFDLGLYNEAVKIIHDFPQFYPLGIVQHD
Series [4] concerns the target hnRNPA1;RPA-E240K heterotrimer (human;human, UniProt P09651;P27694;P15927;P35244 1-372;1-616;1-270;1-121, |E240K). Briefly: bulk FRET.
Series [5] addresses T1, RPA heterotrimer (RPA1/RPA2/RPA3). Briefly: bulk FRET.
Series [6] deals with T2, hnRNPA1. Briefly: bulk FRET. This is another data set of the same source.
In series [7] the target is T1, RPA heterotrimer (RPA1/RPA2/RPA3). Briefly: mass photometry.
In a further series the target is RPA-E240K heterotrimer (human, UniProt P27694;P15927;P35244 1-616;1-270;1-121, E240K). Briefly: mass photometry.
Chain of RPA-E240K heterotrimer (P27694 whole entry E240K, chain 1 of 3): as the sequence (P27694 whole entry, chain 2 of 4) above, with E240K counted along it
Chain of RPA-E240K heterotrimer (P15927 whole entry, chain 2 of 3): as the sequence (P15927 whole entry, chain 3 of 4) above
Chain of RPA-E240K heterotrimer (P35244 whole entry, chain 3 of 3): as the sequence (P35244 whole entry, chain 4 of 4) above

Like-named read-outs stand apart in the source and are kept apart here.

For orientation: Kd means the constant that tells how readily two partners part at equilibrium. Read a low Kd as a tighter complex.

T1 sequence (P27694 whole entry, chain 1 of 3): as the sequence (P27694 whole entry, chain 2 of 4) above
T1 sequence (P15927 whole entry, chain 2 of 3): as the sequence (P15927 whole entry, chain 3 of 4) above
T1 sequence (P35244 whole entry, chain 3 of 3): as the sequence (P35244 whole entry, chain 4 of 4) above
T2 sequence (P09651 whole entry): as the sequence (P09651 whole entry, chain 1 of 4) above
Chain of hnRNPA1;RPA-E240K heterotrimer (P09651 whole entry, chain 1 of 4): as above
Chain of hnRNPA1;RPA-E240K heterotrimer (P27694 whole entry E240K, chain 2 of 4): as the sequence (P27694 whole entry, chain 2 of 4) above, with E240K counted along it
Chain of hnRNPA1;RPA-E240K heterotrimer (P15927 whole entry, chain 3 of 4): as the sequence (P15927 whole entry, chain 3 of 4) above
Chain of hnRNPA1;RPA-E240K heterotrimer (P35244 whole entry, chain 4 of 4): as the sequence (P35244 whole entry, chain 4 of 4) above

For TTAGGGTTAGGGTTAGGGTTAGGGTTAGGG (structured_DNA) [h-telG4 (FRET), five telomeric repeats], the binding result in series [1] is on record as “binds”. In addition, the equilibrium dissociation constant (Kd) was 20.6 ± 3.5 nM in the series with hnRNPA1 [2], 27.4 ± 2.7 nM in series [3] and 75.9 ± 25.5 nM in series [4].
TGGGGAGGGTGGGGAGGGTGGGGAAGG (structured_DNA) [PU27G4]: the binding result in series [5] is “binds”.
On the same count and under the same terms, for TTTTTTTTTTTTTTTTTTTTTTTTTTTTTT (ssDNA) [dT30] the value was “binds”; for AGGGGCGGGCGCTTTAGGAAAAGGGCGGGT (structured_DNA) [BCL-2G4 1245], “binds”.
In the case of TTAGGGTTAGGGTTA (ssDNA) [h-tel-15(FRET)], in the series with hnRNPA1 [6], binding was put at a Kd of 73.5 ± 4.3 nM.
On to TTAGGGTTAGGGTTAGGGTTAGGGTTAGGG (structured_DNA) [h-telG4 (MP)], for which the binding result (in series [7]; in the series with RPA-E240K heterotrimer) was “binds” in each case.
